These results are taken from the supplement of paper PMC9170038.

This series deals with MS2 coat protein. Nature of the series: apparent KD of MS2 coat protein; designed switch direction (-1 OFF switch, 1 ON switch): -1; higher = weaker reporter binding. An outline of the steps:
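The reported apparent KD is a per-design median over clusters, from curve fits of normalised cluster fluorescence. Protein titrations used SNAP-549-labelled MS2 coat protein, doubled from 0.7 or 1.5 nM to 3 µM, in Tris-HCl pH 7.5 buffer with KCl, MgCl2, BSA, DTT, tRNA and Tween-20, with no input, 200 uM small-molecule ligand, or an oligonucleotide input. The RNA switches were transcribed on Illumina chips by stalled E. coli RNA polymerase.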

Setting [1] is: Eterna round: R95, input ligand: microRNA oligo, concentration not stated.
Setting [2] is: input ligand: microRNA oligo, concentration not stated.

Consider “AAUCCUGAAGUUAGGAUAUGAAGUAUCACUACACUUUAGAAGGAACUUGAGGAUCACCCAAGUAGCCGUGAGGC [jl-bmx4.4.65 ViennaUCT mod] (Eterna round: R97, puzzle: Brourd's mod of Exclusion 4)”, for which the “apparent KD of MS2 coat protein” value (input ligand: FMN 200 uM) came out at 68 nM and the “apparent KD of MS2 coat protein” value (input ligand: none) amounted to 22.4 nM.

On to “AAUGAUUCAGGAUAUACAUGAGGAUCACCCAUGUUGGUGUCCCUCCCAAAGUUGCAGUGUAGAAGGGAGUCCCG [Tigezaonbi] (puzzle: Exclusion 3)”, for which the “apparent KD of MS2 coat protein” value under setting [1] was found to be 132 nM.

As for “AAUUAAACAAGCAGAUCCCACAUGAGGAUCACCCAUGUGCUCGUCUUAUAAGGUACUGUGACGAGAGUCACGGUACC [Mat - Sensor, turn-off var - Eli Mod - D64] (Eterna round: R97, puzzle: Sensor, turn-off variant 1)”, the “apparent KD of MS2 coat protein” value came out at 66.4 nM (input ligand: FMN 200 uM) and 47.4 nM (input ligand: none).

For the sequence “AAUUAAUAUCAGGAUAUGACGUGCCUCGGCACGUCAGAAGGGAUGACAUGAGGAUCACCCAUGUGAUCAAUUAA [E6/1-A2] (Eterna round: R97, puzzle: Exclusion 6)”, the “apparent KD of MS2 coat protein” value was 153 nM (input ligand: FMN 200 uM) and 28.7 nM (input ligand: none).

As for “AAUUAAUAUCAGGAUAUGACGUGCUGCGGCACGUCAGAAGGGAUGACAUGAGGAUCACCCAUGUGAUCAAUUAA [E6/1-A3] (Eterna round: R97, puzzle: Exclusion 6)”, the “apparent KD of MS2 coat protein” value by setting is: (input ligand: FMN 200 uM) 114 nM; (input ligand: none) 22.1 nM.

For “AAUUAGUAUGUGAGGAUAUUGAUGUAAUGACGGUUUAAGAAGGCACAUGAGGAUCACCCAUGUAAAUGAUCACG [JR_BMEx4_Sub008] (Eterna round: R97, puzzle: Brourd's mod of Exclusion 4)”, the “apparent KD of MS2 coat protein” value is, setting by setting: (input ligand: FMN 200 uM) 74.4 nM; (input ligand: none) 37.7 nM.

With “AAUUAUUAUUGAGGAUAUCGUAUUGAAACAAUAUGAGAAGGCGGGAUAAACAUGAGGAUCACCCAUGUGAGCCUGAUGCUUGUG [Ex NG1 #40] (Eterna round: R96, puzzle: Exclusion NG 1)”, the “apparent KD of MS2 coat protein” value under setting [2] was 15.3 nM.

As for “AAUUUACAUGAGGAUCACCCAUGUGAGGAUAUAUGCAAAGAAGUGUUAGUAAGAAAGCAUAGAAGGCGCGUGAU [JR_Exc1_Sub041] (Eterna round: R97, puzzle: Exclusion 1)”, the “apparent KD of MS2 coat protein” value by setting is: (input ligand: FMN 200 uM) 64.6 nM; (input ligand: none) 47.8 nM.

As for “AAUUUCGCGGCCCGAUGACUGCGUACUGACAGUGAGCUCACAUGAGGAUCACCCAUGUUUUUUGCUCGUAAAUCAGA [Quarat] (Eterna round: R96, puzzle: Sensor v2, turn-off variant 2)”, the “apparent KD of MS2 coat protein” value reads like this: (input ligand: FMN 200 uM) 13.6 nM; under setting [2], 12.3 nM; (input ligand: none) 16.1 nM.

Consider “AAUUUUUAUGUAAGGAUAUAAGUUUGGAAACGGGCUUAGAAGGUACAUGAGGAUCACCCAUGUAUAAUGUGCGU [-20.6, -20.4 kcal, 32% A] (Eterna round: R97, puzzle: Brourd's mod of Exclusion 4)”, for which the “apparent KD of MS2 coat protein” value (input ligand: FMN 200 uM) stood at 52 nM and the “apparent KD of MS2 coat protein” value (input ligand: none) amounted to 23.2 nM.

Consider “ACAAGCUCUUUGCAACUUAGUUUUGUUGCUUCGUAGGUAACAUGAGGAUCACCCAUGUAAGACUGAUGUCGUCUUAU [JR_SV3TOV2_Sub086] (Eterna round: R96, puzzle: Sensor v3, turn-off variant 2)”, for which the “apparent KD of MS2 coat protein” value is, setting by setting: (input ligand: FMN 200 uM) 36.8 nM; under setting [2], 20.6 nM; (input ligand: none) 38.2 nM.

Consider “ACAAGCUCUUUGCAACUUAGUUUUGUUGCUUCGUAGGUAACAUGAGGAUCACCCAUGUAAGACUGAUGUCGUCUUAU [JR_SV3TOV2_Sub086] (puzzle: Sensor v3, turn-off variant 2)”, for which the “apparent KD of MS2 coat protein” value (Eterna round: R95, input ligand: FMN 200 uM) was 33.1 nM; the “apparent KD of MS2 coat protein” value under setting [1] was found to be 21.4 nM; the “apparent KD of MS2 coat protein” value (Eterna round: R95, input ligand: none) came to 36.8 nM.

Consider “ACAAGCUUAAUCUGUAUGAACAUGAGGAUCACCCAUGUAUAAGGGAAUUCUUUUGGGUUUUUUAUAGCUCGUCUUAU [JR_STOV1_Sub020] (Eterna round: R97, puzzle: Sensor, turn-off variant 1)”, for which the “apparent KD of MS2 coat protein” value (input ligand: FMN 200 uM) is 280 nM and the “apparent KD of MS2 coat protein” value (input ligand: none) stood at 337 nM.
